Test results as given in US20220289791A1 (UNIVERSIT CATHOLIQUE DE LOUVAIN, published 2022).
*1 amine or outer side, *2 acyl side, *3 side chain or, on linkers, in order; H or OH if unused. Bridges are numbered along the chain shown (N, C = ends). Where no end group is shown, it is not given here. C6F4(1,4-diyl) = Fc1c(F)c([*:2])c(F)c(F)c1[*:1]

Experiments:
[1] = biological target: T1, LDH1, tetramer of full length human LDHB subunits (human, UniProt P07195 2-334); test: biochemical and biophysical evaluation, not specified further
T1 construct: Homotetramer; also called LDHBfl; full length LDHB
T1 sequence (P07195 2-334 limits assumed): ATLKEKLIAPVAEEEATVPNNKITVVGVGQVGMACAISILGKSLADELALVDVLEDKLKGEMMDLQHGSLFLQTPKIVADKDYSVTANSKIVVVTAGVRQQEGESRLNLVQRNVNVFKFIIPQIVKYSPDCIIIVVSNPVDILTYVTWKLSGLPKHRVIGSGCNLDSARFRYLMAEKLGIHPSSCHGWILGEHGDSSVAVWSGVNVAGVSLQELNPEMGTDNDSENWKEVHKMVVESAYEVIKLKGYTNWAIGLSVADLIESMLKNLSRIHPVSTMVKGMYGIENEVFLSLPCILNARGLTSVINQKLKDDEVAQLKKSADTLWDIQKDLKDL

[2] = biological target: T1, LDH1, tetramer of full length human …; test: MST on tetrameric LDH1, 10 to 20 s on time
[3] = biological target: T2, human LDH5, tetramer of human LDHA subunits (human, UniProt P00338 1-332); test: MST on tetrameric LDH5, Kd from red-dye raw fluorescence
[4] = biological target: T1, LDH1, tetramer of full length human …; test: cell-based or functional assay
[5] = biological target: T2, human LDH5, tetramer of human LDHA …; test: cell-based or functional assay

| Binder | binding result [1] | Kd [2] [µM] | Kd [3] [µM] | EC50 of disruption of the tetrameric state (normalised 350 nm intrinsic fluorescence) [4] [µM] | ΔTm, thermal denaturation by nanoDSF, 400 µM MP7 [4] [° C.] | ΔTm, thermal denaturation by nanoDSF, 400 µM MP7 [5] [° C.] |
| --- | --- | --- | --- | --- | --- | --- |
| ATLKEKLIAPVAEEEATVP-NH2 [LB19, LDHB 19 N-terminal amino acid peptide] | no binding |  |  |  |  |  |
| CTLKCKLI-NH2 (linker 1-5 via C6F4(1,4-diyl); N-terminus assumed; SMILES CC[C@H](C)[C@H](NC(=O)[C@H](CC(C)C)NC(=O)[C@H](CCCCN)NC(=O)[C@@H]1CSc2c(F)c(F)c(c(F)c2F)SC[C@H](N)C(=O)N[C@@H]([C@@H](C)O)C(=O)N[C@@H](CC(C)C)C(=O)N[C@@H](CCCCN)C(=O)N1)C(N)=O) [macrocyclic peptide MP7] |  | ~380 | ~117 | 172 | -1.5 | -5 |
